± gives the uncertainty stated by the source.
Test: amyloid nucleation score (Sup35N fusion, yeast selection) (log enrichment); library NNK1; higher = more nucleation; inactive = no reads after selection
In short: (§1)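 After 24 hours of induction with 100 μM copper sulfate, psi-negative yeast expressing peptides of 20 random codons fused to Sup35N were grown for 7 days at 30°C on medium lacking adenine and uracil. Input and output plasmid inserts were sequenced with Illumina, and sequences with under 100 input reads were discarded. Scores for nucleation are the DiMSum log enrichment of output over input reads, centred on the mode score of non-aggregating sequences.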

| Substance | amyloid nucleation score |
| --- | --- |
| AKLDWHIRTAEWGLPKLLLT | inactive |
| SYVMGLVYLIYTCKYWFFSE | -0.827 ± 1.7 |
| DSLLWVMKYSMVSFYMCDYR | -0.668 ± 0.97 |
| TQRTAFRGR | 0.203 ± 0.75 |
| LHTTKK | 0.293 ± 0.48 |
| WHEHSYLENSIYITRIKINV | 3.18 ± 0.15 |
| TNISQGRCKVECLPITSIYG | 0.247 ± 0.75 |
| YFEWFVYLYSSRVFFLMLGR | -0.038 ± 0.62 |
| YTFGDAGHPESAMVTCRAYS | -0.007 ± 0.33 |
| KDMDSFSTTCLLLRLRGRTG | 0.053 ± 0.35 |
| GNKDDTV | -1.6 ± 1.1 |
| RLFCGSWDNFREGE | -0.063 ± 0.58 |
| STKADTSRALVLCRGDC | -0.18 ± 0.59 |
| AQSPQVNSLWCGMNFTTFPG | 1.92 ± 0.2 |
| CRQGMTLAVREPGASTSVYN | 0.47 ± 0.71 |
| FLVYGSSGFTAVLGPQCEEG | -0.777 ± 1.4 |
| EKFGRRCCSFGRSVSEWVTK | 0.999 ± 0.66 |
| DITYVYFSVAELLLMFLTLY | 1.33 ± 0.48 |
| EPYDSLGYPNEDLGTGVFWG | -1.72 ± 2.7 |
| SMAIVDRWLMQGSSQPAGS | 0.702 ± 0.53 |
| GGVLGSTKSLFVDPANLGGL | inactive |
| VLLWVGLTYATGLGRRSSLF | -1.3 ± 0.97 |
| RSALVLVYGLTACLNGLGMC | 3.04 ± 0.097 |
| KVTLNFRSHSLENCDAYNKY | 3.15 ± 0.12 |
| VKIHASEVYFPMQSTYLMVD | 0.086 ± 0.72 |
| IVIFPFFLVISDLYVVVSLG | -0.077 ± 0.53 |

| Substance | amyloid nucleation score |
| --- | --- |
| YGQIPTFHRRSQVHLCNRIW | 0.206 ± 1.6 |
| CLEVFKNGCRNLRTGRVINR | 1.03 ± 0.9 |
| CLSDGTMAFPCPGRQDVRTV | -0.015 ± 0.34 |
| CCERGWS | 0.156 ± 0.72 |
| RLFRNTPSDFTFVYTCGRDA | 0.497 ± 0.57 |
| SGYMWMFMSHRNEFRTEVRW | 0.385 ± 0.37 |
| QKSVWKSITGRASFYSSLVR | inactive |
| LYSLGTSHEIPCLM | 0.442 ± 0.42 |
| TQEKMSVGYYASNSLFWSML | 0.36 ± 1.2 |
| FHVHSVLISE | -0.166 ± 0.84 |
| GRKIDCGRLIMIAVRCNQVA | 0.358 ± 0.41 |
| SRWFCYRLVFTFVGPTRHLD | 0.172 ± 0.77 |
| FNKQFCK | 0.776 ± 0.44 |
| DFYFYKLSLIFKSAFRWFPV | -0.359 ± 1.2 |
| VIKSRP | 0.639 ± 0.42 |
| IFAQKGYTSRFSILM | -0.565 ± 0.58 |
| LNIEVFNFICNRRAIWMRFA | 0.684 ± 0.53 |
| PLSVFTTPPSDHCDIKGKIE | -0.852 ± 2.1 |
| ECGVFQVKTAGIGS | -0.425 ± 0.8 |
| YYMMTKRGFNMILCCCCRCF | 0.667 ± 0.2 |
| LLYPHSTSRGLIMTFYPKSG | 0.54 ± 0.6 |
| MKRASSLMINFMMPCNFYCG | 0.532 ± 0.62 |
| QSVGMWSY | -0.256 ± 0.88 |
| SDDRLATCTFCLYSRIKQVK | -0.651 ± 1.7 |
| TFYEMPFIFDLCYRWLTVTG | 1.34 ± 0.65 |
| SVYVLSRGAVSMSVWHR | 3.64 ± 0.15 |

Test: amyloid nucleation score (Sup35N fusion, yeast selection) (log enrichment); library NNK2; higher = more nucleation; inactive = no reads after selection
In short: as §1

| Substance | amyloid nucleation score |
| --- | --- |
| AKLDWHIRTAEWGLPKLLLT | -0.467 ± 0.54 |
